Laboratory results from PMC3166162, “A Dual Binding Mode for RhoGTPases in Plexin Signalling” (PLoS Biology, 2011).

Tests used:
[1] = molecular target: Plexin-B1_(cyto) (entire cytoplasmic domain of human Plexin-B1, residues 1511-2135) (human) (UniProt O43157); assay: crystal structure; Plexin-B1_(cyto) and Rac1* mixed 1:1.2; 1 M Li2SO4, 0.5 M ammonium sulphate, 0.1 M citrate pH 5.6; 4.4 Å; three complexes in the asymmetric unit
Plexin-B1Δ2 Leu1815Glu [2] = molecular target: T1, Plexin-B1Δ2 Leu1815Glu (human, UniProt O43157-1 1543-2135, Leu1815Glu, biotin, added enzymatically within the engineered C-terminal tag); assay: SPR; as a1, high coupling density: 5,000 RU of the plexin construct loaded on the chip; RhoGTPase 120 nM to 2,000 µM; details: both partners purified
T1 construct: human Plexin-B1, cytoplasmic region lacking the N-terminal helix, residues 1543-2135; also called site A Plexin-B1Δ2 mutant Leu1815Glu^Plex; source: HEK 293T cells, transfected, purified; not shown: engineered tag for enzymatic biotinylation, C-terminal, kept

[3] = molecular target: Plexin-B1_(cyto) Arg1921Ala (human, UniProt O43157-1 1511-2135, Arg1921Ala, biotin, added enzymatically within the engineered C-terminal tag); assay: SPR
[4] = molecular target: Plexin-B1_(cyto) Leu2036Arg (human, UniProt O43157-1 1511-2135, Leu2036Arg, biotin, added enzymatically within the engineered C-terminal tag); assay: SPR
[5] = molecular target: Plexin-B1_(cyto) Thr1920Glu (human, UniProt O43157-1 1511-2135, Thr1920Glu, biotin, added enzymatically within the engineered C-terminal tag); assay: SPR
[6] = molecular target: T2, Plexin-B1_(cyto) Leu2036Arg (human, UniProt O43157-1 1511-2135, Leu2036Arg, biotin, added enzymatically within the engineered C-terminal tag); assay: SPR; Biacore T100, 25°C, standard buffer with 0.05% (v/v) Tween 20; biotinylated plexin constructs on streptavidin surfaces (500-5,000 RU); RhoGTPase injected, 120 nM to 500 µM; equilibrium responses fitted to a 1:1 Langmuir model; details: both partners purified
T2 construct: human Plexin-B1, cytoplasmic region, residues 1511-2135; also called Leu2036Arg^Plex; site B mutant; source: HEK 293T cells, transfected, purified; not shown: engineered tag for enzymatic biotinylation, C-terminal, kept

[7] = molecular target: T3, Plexin-B1_(cyto) Arg1921Ala (human, UniProt O43157-1 1511-2135, Arg1921Ala, biotin, added enzymatically within the engineered C-terminal tag); assay: as above; details: both partners purified
T3 construct: human Plexin-B1, cytoplasmic region, residues 1511-2135; also called Arg1921Ala^Plex; site B mutant; source: HEK 293T cells, transfected, purified; not shown: engineered tag for enzymatic biotinylation, C-terminal, kept

[8] = molecular target: T4, Plexin-B1_(cyto) Thr1920Glu (human, UniProt O43157-1 1511-2135, Thr1920Glu, biotin, added enzymatically within the engineered C-terminal tag); assay: as above; details: both partners purified
T4 construct: human Plexin-B1, cytoplasmic region, residues 1511-2135; also called Thr1920Glu^Plex; site B mutant; source: HEK 293T cells, transfected, purified; not shown: engineered tag for enzymatic biotinylation, C-terminal, kept

[9] = molecular target: T5, Plexin-B1_(cyto), wild type, biotinylated within an engineered C-terminal tag for SPR (human, UniProt O43157-1 1511-2135, biotin, added enzymatically within the engineered C-terminal tag); assay: as above; details: both partners purified
T5 construct: human Plexin-B1, cytoplasmic region, residues 1511-2135; also called Plexin-B1cyto WT; full-length Plexin-B1_(cyto); source: purified; mutant constructs for SPR: HEK 293T; not shown: engineered tag for enzymatic biotinylation, C-terminal, kept
T5 sequence (O43157 1511-2135, change not shown): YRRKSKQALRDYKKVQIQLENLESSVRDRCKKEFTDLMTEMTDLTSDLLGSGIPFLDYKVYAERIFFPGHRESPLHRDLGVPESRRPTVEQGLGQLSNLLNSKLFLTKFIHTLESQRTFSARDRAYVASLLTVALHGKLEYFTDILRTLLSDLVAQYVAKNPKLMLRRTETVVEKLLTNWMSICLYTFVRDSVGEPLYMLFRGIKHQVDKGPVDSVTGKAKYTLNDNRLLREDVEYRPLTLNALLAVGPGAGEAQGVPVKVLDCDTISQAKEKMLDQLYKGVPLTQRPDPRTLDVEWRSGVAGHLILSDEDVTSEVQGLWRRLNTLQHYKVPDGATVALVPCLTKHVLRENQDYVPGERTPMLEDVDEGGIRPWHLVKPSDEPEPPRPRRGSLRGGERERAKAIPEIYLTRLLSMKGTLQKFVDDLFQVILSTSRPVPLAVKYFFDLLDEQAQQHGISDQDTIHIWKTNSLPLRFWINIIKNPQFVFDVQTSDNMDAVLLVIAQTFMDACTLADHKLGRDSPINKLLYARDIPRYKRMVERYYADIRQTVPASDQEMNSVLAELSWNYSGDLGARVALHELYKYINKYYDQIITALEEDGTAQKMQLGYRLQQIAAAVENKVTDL

Plexin-B1Δ2 Leu1815Glu [10] = molecular target: Plexin-B1Δ2 Leu1815Glu (human, UniProt O43157-1 1543-2135, Leu1815Glu, biotin, added enzymatically within the engineered C-terminal tag); assay: SPR; surface 5,000 RU

Question: Which stoichiometry N [1] does the source give for “Plexin-B1_(cyto) (entire cytoplasmic domain of human Plexin-B1, residues 1511-2135) (from UniProt O43157-1 1511-2135) (domain or fragment)” here?
Answer: Its stoichiometry N is 3.

B1: Rnd1 (residues 5-200) (enzyme, human, UniProt Q92730 5-200, looked up)
chain: RAPQPVVARCKLVLVGDVQCGKTAMLQVLAKDCYPETYVPTVFENYTACLETEEQRVELSLWDTSGSPYYDNVRPLCYSDSDAVLLCFDISRPETVDSALKKWRTEILDYCPSTRVLLIGCKTDLRTDLSTLMELSHQKQAPISYEQGCAIAKQLGAEIYLEGSAFTSEKSIHSIFRTASMLCLNKPSPLPQKSPV
notes: human Rnd1, residues 5-200; source: E. coli BL21 Star, purified
Question: Does B1 bind (Plexin-B1Δ2 Leu1815Glu [2])?
Answer: Result: binds

Question: And the Kd [3]?
Answer: Its Kd is 15.2 µM.

Question: And the Kd [4]?
Answer: The Kd was 16.5 µM.

Question: What about the Kd [5] of the same molecule?
Answer: The Kd was 14.2 µM.

Question: Does B1 bind [6]?
Answer: Result: binds

Question: Does B1 bind [7]?
Answer: Result: binds

Question: Does B1 bind [8]?
Answer: Result: binds

Question: What about the Kd [9] of the same molecule?
Answer: The Kd was 22.9 µM.

Question: What about the Kd (Plexin-B1Δ2 Leu1815Glu [10]) of the same molecule?
Answer: The Kd was 486 µM.
